The text below walks through data of the nanobody polyreactivity screen of Harvey et al. (2022).

The data set can be described thus: yeast display, Sf9 membrane polyspecificity reagent, FACS + sequencing; frameworks hold sequencing errors. A digest of the protocol:
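After 36–48 hours of galactose induction, yeast (Saccharomyces cerevisiae BJ5465) displaying a synthetic nanobody library were stained at 4 °C for 1 hour with 10% biotinylated, detergent-solubilized Sf9 membrane reagent. Streptavidin microbeads enriched the stained cells before FACS sorting into low and high (top ~1%) gates on anti-HA and streptavidin fluorescence. Each clone's polyreactivity label reflects its gate of origin.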
As for “QVQLVESGGGLVQAGGSLRLSCAASGRIFSHYDLGWYRQAPGKEREVVAAISSGGITYYADSVKGRFTISRDNAKNTVYLQRNSLKPEDTAVYYCAAVRRRGTTYDYWGQGTQVTVSS”, the “polyreactivity (PSR sort gate)” value is “high polyreactivity”.
For “QVQLVESGGGLVQAGGSLRLSCAASGRIFSINAMGWYRQAPGKEREFVATISDRGSTTSYADSVKGRFTISGDNAKNTVDLQMNSLKPDDTAVYYCAARSYYRYDYWGQGTQVTVSS” the value was “high polyreactivity”.
Next, “QVQLVESGGGLVQAGGSLRLSCAASGRIFSINAMGWYRQAPGKERELVAAITSRGTSTYYADSVKGRFTISRDNAKNTVYLQMNSMKPEDTAVYYCAKKYVGGPWPRYFWGQGTQVTVSS”: “high polyreactivity”; “QVQLVESGGGLVQAGGSLRLSCAASGRIFSIYAMGWYRQAPGKERELVAAIRSRGGRTHYADSVKVRFTISRDNAKNTVYLQMNSLKPEDTAVYFCNAKYFSGDNYWGQGTQVTVSS”: “high polyreactivity”.
As to “QVQLVESGGGLVQAGGSLRLSCAASGRIFSKNAMGWCRQAPGKERELVAGITSISGSTYYADSVKGRFTISRDNAKNTVYLQMNSLKPEDTAVYYCAARFPHRHYLLYTYDYWGQGTQVTVSS”, the “polyreactivity (PSR sort gate)” value is recorded as “low polyreactivity”.
With “QVQLVESGGGLVQAGGSLRLSCAASGRIFSKYAMGWYRQAPGKEREFVASISYRGGSTYYADSVKGRFTISRDNAKNTVYLQMNSLKPEDTAVYYCATRKYADRESDYWGQGTQVTVSS”, the “polyreactivity (PSR sort gate)” value was “high polyreactivity”.
Take “QVQLVESGGGLVQAGGSLRLSCAASGRIFSKYAMGWYRQAPGKERELVAAISNGGSTNYADTVKGRFTISRDNAKNTVYLQMNSLKPEDTAVYYCAKQDRVLYGGYDSWGQGTQVTVSS”: the “polyreactivity (PSR sort gate)” value is given as “low polyreactivity”.
As for “QVQLVESGGGLVQAGGSLRLSCAASGRIFSKYAMGWYRQAPGKERELVAAITSGGRTYYADSVKGRFTISRDNAKNTVYLQMNSLIPEDTAVYYCAARYVQVVRKFGYWGQGTQVTVSS”, the “polyreactivity (PSR sort gate)” value is listed as “high polyreactivity”.
As to “QVQLVESGGGLVQAGGSLRLSCAASGRIFSLNVMGWYRPAPGKERELVATIRGRGTSTYYADSVKGRFTISRDNAKNTVYLQMNSLKPEDTAVYYCAARGHGAYGYWGQGTQVTVSS”, the “polyreactivity (PSR sort gate)” value is “low polyreactivity”.
Take “QVQLVESGGGLVQAGGSLRLSCAASGRIFSLYAMGWYRQAPGKERELDAAITWSSGSTYYADSVKGRFTISRDNAKNTVYLQMNSLKPEDTAVYYCAARVFTLLGYSFEYWGQGTQVTVSS”: the “polyreactivity (PSR sort gate)” value is recorded as “low polyreactivity”.
For “QVQLVESGGGLVQAGGSLRLSCAASGRIFSNNAMGWYRQAPGKERELVAAISSSGSTYYADSVKGRFTISRDNAKNTVYLLMNSLKPEDTAVYYCAVVYGYPYLRGYVYGFNYWGQGTQVTVSS” the value was “low polyreactivity”.
For “QVQLVESGGGLVQAGGSLRLSCAASGRIFSPYAMGWYRQAPGKERELVAAINYSGSRTYYADSVTGRFTISRDNAKNTVYLQMNSLKPEDTAVYYCARPWAPSSRGNGYWGLGTQVTVSS” the value was “high polyreactivity”.
“QVQLVESGGGLVQAGGSLRLSCAASGRIFSRNAMGWYRQAPGKERELVAAISRSGGSTYYADSVKGRFTISRDNAKNTVYLQMNSLKPEDTAVYYCNTRYRPVKGSGPRYDYWGQGTQVTVSS”: the “polyreactivity (PSR sort gate)” value is on record as “low polyreactivity”.
Consider “QVQLVESGGGLVQAGGSLRLSCAASGRIFSRNAMGWYRQAPGKERELVAAITWRGGNTYYAHSVKGRFTISRDNAKNTVYLQMNSLKPEDTAVYYCAADYLRWAGRYFSWDYDYWGQGTQVTVSS”, for which the “polyreactivity (PSR sort gate)” value is reported as “high polyreactivity”.
On to “QVQLVESGGGLVQAGGSLRLSCAASGRIFSRSAMGWYRQAPGKERELVAAIRWSTGSTNYADSVKGRFTISRDNAKNTVYLQMNSLKPEDTAVYYCNARYYVRPYSPGYYYWGQGTQVTVSS”, for which the “polyreactivity (PSR sort gate)” value is “high polyreactivity”.
Next, “QVQLVESGGGLVQAGGSLRLSCAASGRIFSRYAMGWDRQAPGKERELVAAINNGGSTYYADSVKGRFTISRDNAKNTVYLQMNSLKPEDTAVYYCAKLWWSNFKPVEYWGQGTQVTVSS”: “low polyreactivity”.
As to “QVQLVESGGGLVQAGGSLRLSCAASGRIFSRYAMGWYRQAPGKERELVAAIASSGTTTYYADSVKGRFTISRDIAKNTVYLQMNSLKAEDTAVYYCATSAVRHIYWGQGTQVTVSS”, the “polyreactivity (PSR sort gate)” value is listed as “high polyreactivity”.
For “QVQLVESGGGLVQAGGSLRLSCAASGRIFSRYAMGWYRQAPGKERELVAAIRSNGGRTYYADSVKGRFTISRDNAKNTVYLQMNSLKPEDTAVYYCAAAGGGKVSYRDYDYWGQGTQVTVSS” the value was “high polyreactivity”; for “QVQLVESGGGLVQAGGSLRLSCAASGRIFSRYAMGWYRQAPGKERELVASIRITGSTYYADSVKGRFTISRDNAKTTVYLQMNSLKPEDTAVYYCAAYQYRLGNIRLNYWGQGTQVTVSS”, “high polyreactivity”; for “QVQLVESGGGLVQAGGSLRLSCAASGRIFSRYAMGWYRQAPGKERELVATISSGGGTYYADSVKGRFTISRDTAKNTVYLQMNSLKPEDTAVYYCAAASYSGHGRYDDWGQGTQVSVSS”, “high polyreactivity”.
On to “QVQLVESGGGLVQAGGSLRLSCAASGRIFSRYAMGWYRQAPGKERELVAVISRSGADTYYADSVKGRFTISRDNAKNTVYLQMNSLKPEDTAVYYCNAYSARRPHPMGYDYWGQGTQVTVSS”, for which the “polyreactivity (PSR sort gate)” value is given as “high polyreactivity”.
For “QVQLVESGGGLVQAGGSLRLSCAASGRIFSRYVMGWYRQAPGKEREFFASITWSGSSTYYADSVKGRFTISRDNAKNTVYLQMNSLKPEDTAVYYCAALGLLSPSPCGTHISEYDSWGQGTQVTVSS” the value was “low polyreactivity”; for “QVQLVESGGGLVQAGGSLRLSCAASGRIFSSNAMGWYRQAPGKEREFVAAISWRTGSTYYADSVKGRFTISRDNAKNTVYLQMNSLKPEDTAVYYCNKRTGSYGYPYYYWGQGTQVTVSS”, “high polyreactivity”.
For the sequence “QVQLVESGGGLVQAGGSLRLSCAASGRIFSSYAMGWYRQAPGKERELVAAISKSGGNTYYADSVKGRFTISRDNAKNTVYLQMNSLKPEDTAVYYCDAVAPYTLYFWLYYWGQGTHVTVSS”, the “polyreactivity (PSR sort gate)” value is “high polyreactivity”.
For “QVQLVESGGGLVQAGGSLRLSCAASGRIFSSYAMGWYRQAPGKERELVAAISRGGGRTYYADSVKGRFTISRDNAKNTVYLQMNSLKPEDTAVYYCATVVRSAAYAFDYWGQGTQVTVSS” the value was “high polyreactivity”; for “QVQLVESGGGLVQAGGSLRLSCAASGRIFSSYAMGWYRQAPGKERELVAAISSRGGSTYYADSVKGRFTISRDNAKNTVYLQMNSLKPEDTAVYYCARVKYSGVVYKYDYWGQGTQVTVSS”, “high polyreactivity”.
For “QVQLVESGGGLVQAGGSLRLSCAASGRIFSSYDMGWYRQAPGKEPELVAAISRSGARTYYADSVKGRFTISRDNAKNTVYLQMNSLKPEDTAVYYCAAEFRSWGGYRYRFNYWGQGTQVTVSS”, the “polyreactivity (PSR sort gate)” value is reported as “high polyreactivity”.
For “QVQLVESGGGLVQAGGSLRLSCAASGRIFSTYAMGWYRQAPGKERELVAAISWRGSSTYYADSVKGRFTISRDNAKNTVYLQMNSLKPEDTAVYYCNADKANRYDWGQGTQVTVSS” the value was “high polyreactivity”; for “QVQLVESGGGLVQAGGSLRLSCAASGRIFSTYAMGWYRQAPGKERELVAAISYSGTTTYYADSVKGRFTISRDNAKNTVYLQLNRLKPEDTAVYYCAAYRYSSWAYGRDYYWGQGTQVTVSS”, “high polyreactivity”.
For “QVQLVESGGGLVQAGGSLRLSCAASGRIFSVNAMGWYRQAPGKERELVAAITTRGGTTYYADSVKGRFTISRDNAKNTVSLQMNSLKPEDTAVYYCAAESSWYVYWEWAHDYWGQGTQVTVSS” the value was “low polyreactivity”; for “QVQLVESGGGLVQAGGSLRLSCAASGRIFSVNAMGWYRQAPGKERELVASISWSGGSTYYADSVKGRFTISRDNAKNTVYLQMNSLKPEDTAVYYCARGYWVYYPDGDYWGQGTQVTVSS”, “low polyreactivity”.
With “QVQLVESGGGLVQAGGSLRLSCAASGRIFSVNAMGWYRQAPGNERELVAAMTSGDSTNYADSVKGRFTISRDNAKNTVYLQMNSLKPEDNAVYYCNARGSQELWRRKWYHTEYDYWGQGTQVTVSS”, the “polyreactivity (PSR sort gate)” value is recorded as “low polyreactivity”.
With “QVQLVESGGGLVQAGGSLRLSCAASGRIFSVYAMGWYRPAPGKERELVAAITRVGSTNYADSVKGRFTISRDNAKNTVYLQMNSLKPEDTAVYYCAASKYGSLSGYWGQGTQVTVSS”, the “polyreactivity (PSR sort gate)” value was “high polyreactivity”.
As for “QVQLVESGGGLVQAGGSLRLSCAASGRIFSVYVMGWYRPAPGKERELVAAISGRDGTTYYADSVKGRFTISRDNAKNTVYLQMNSLKPEDTAVYYCAAEDIDFTPMDYWGQGTQVTVSS”, the “polyreactivity (PSR sort gate)” value is recorded as “high polyreactivity”.
In the case of “QVQLVESGGGLVQAGGSLRLSCAASGRIFSVYVMGWYRQAPGKERELVAAITRSGGRTYYADSVKGRFTISRDNAKNTVYLQMNSLKPDDTAVYYCAARVKGYAYNYWGQGTQVTVSS”, the “polyreactivity (PSR sort gate)” value was “high polyreactivity”.
For “QVQLVESGGGLVQAGGSLRLSCAASGRIFSWYTMGRYRQAPGKERELVADITYSGGSTYYADSVKGRFTISRDNAKNTVYLQMNSLKPEDTAVYYCNADPRWYHFEYGYWGQGTQVTVSS” the value was “high polyreactivity”; for “QVQLVESGGGLVQAGGSLRLSCAASGRIFSWYTMGWYRQAPGKERELVAAISWSGTSTYYADSVKGRFTISRDNAKNTVYLQMNSLKPEDTAVYYCARVLSPYYSTRYDHWGQGTQVTVSS”, “high polyreactivity”.
For “QVQLVESGGGLVQAGGSLRLSCAASGRIFSYNAMGWDRQAPGKERELVSAISYGGGRTYYADSVKGRFTISRYNAKNTVYLQMNSLKPEDTAVYYCNRYGRQYDFFYWGQGTQVTGSS”, the “polyreactivity (PSR sort gate)” value is on record as “high polyreactivity”.
As to “QVQLVESGGGLVQAGGSLRLSCAASGRIFSYNAMGWYRQAPGKERELVAASTFSGGGTYYADSVKGRYTISRDNAKNPVYLQMNSLKPEDTAVYYCNNLSYGYSTYGYWGQGTQVTVSS”, the “polyreactivity (PSR sort gate)” value was “low polyreactivity”.
For “QVQLVESGGGLVQAGGSLRLSCAASGRIFSYYAMGWYRKAPGKERELVAAITSAGGTNYAVSVKGRFTISRDNAKITVYLQMNSLKPEDTAVYYCAADSSVLQNYYRYRYPYVTYNYWGQGTQVTVSS” the value was “low polyreactivity”.
Next, “QVQLVESGGGLVQAGGSLRLSCAASGRIFSYYAMGWYRQAPGKERELVAAISRGGTTNYADSVKGRFTISRDNAKNTVYLQMNSLKPEDTAVYYCNRDFHLIHLSSARLDYWGQGTQVTVSS”: “low polyreactivity”.
